Assay [1] concerns the target Fc protein (control). Nature of the assay: native gel or EMSA; Blue Native PAGE of the purified recombinant proteins in aqueous solution. For orientation: A gel shift assay detects complexes by their altered migration in electrophoresis.
The target in assay [2] is T1, mouse podoplanin (PDPN) (mouse (endogenous in primary cultured …, UniProt Q62011 23-172)).
T1 sequence (looked up): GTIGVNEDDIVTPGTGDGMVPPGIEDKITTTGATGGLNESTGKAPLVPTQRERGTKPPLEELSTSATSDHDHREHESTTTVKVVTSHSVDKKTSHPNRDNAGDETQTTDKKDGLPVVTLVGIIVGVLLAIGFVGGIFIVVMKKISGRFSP
Nature of the assay: cell-based or functional assay.

Two molecules from publication PMC9792514, “C-type lectin-like receptor (CLEC)-2, the ligand of podoplanin, induces morphological changes in podocytes” (Scientific Reports, 2022) can be followed below.

Consider “Fc protein (control) (domain or fragment)”, for which, in assay [1], the stoichiometry N (commonly the number of molecules, sites or subunits per partner or assembly) worked out at 4.

B1: StepTagII-3FLAG-CLEC-2, a fusion of StrepTactin FLAG double tags and the C-terminal extracellular domain of mouse CLEC-2 (51-229) (domain or fragment, UniProt Q9JL99 51-229, looked up)
chain: GIMSVTQQKYLLAEKENLSATLQQLAKKFCQELIRQSEIKTKSTFEHKCSPCATKWRYHGDSCYGFFRRNLTWEESKQYCTEQNATLVKTASQSTLDYIAERITSVRWIGLSRQNSKKDWMWEDSSVLRKNGINLSGNTEENMNCAYLHNGKIHPASCKERHYLICERNAGMTRVDQLL
As to B1, the “pERM/ERM ratio by Western blot of glomerular lysate after infusion of FLAG-CLEC-2 (5 ug/g body weight), against controls” value in assay [2] came out at 0.65 fold.
